According to patent US8557986B2, “Method of producing polysaccharide derivatives” (Seikagaku Corporation, priority 2006, dated 2013):

assay: Test Example 2: passage of 1.0% (w/v) aqueous solution through 0.22 μm porous filter; assay type: physicochemical; conditions: Millex-GV 0.22 μm pore diameter, room temperature, absorbance before and after filter passage
Experimental: Each of the aqueous solutions (test solutions) was injected into a rear portion of a syringe (1 mL in volume: manufactured by TERUMO Corporation) equipped with a porous filter (Millex-GV of 0.22 μm pore diameter: manufactured by Millipore Corporation) and was pressed out with a piston at room temperature to pass through the porous filter.
The diclofenac-based absorbance (peak top) at about 280 nm was measured for each of the test solutions before, and after the filter passage of at least 0.5 mL. The filter passage coefficient of each test solution was expressed by a concentration of the diclofenac content in the test solution before and after the filter passage that was calculated from the change in measured absorbance.

Row | Substance | filter passage coefficient [%]
1 | aminoethanol-diclofenac-introduced sodium hyaluronate [Reference Example 3] | 96.9
2 | aminoethanol-diclofenac-introduced sodium hyaluronate [Example 1] | 95.3
3 | aminoethanol-diclofenac-introduced sodium hyaluronate [Reference Example 4] | 11.0

assay: not given; conditions: not given
Experimental: The aminoethanol-diclofenac-introduced sodium hyaluronate prepared in Reference Examples 1 and 2 were tested by the same procedure.

Row | Substance | solubility in distilled water (appearance of the solution)
4 | aminoethanol-diclofenac-introduced sodium hyaluronate [Example 2] | homogeneously dissolved in distilled water and yielded clear and viscous aqueous solutions
5 | aminoethanol-diclofenac-introduced sodium hyaluronate [Example 3] | homogeneously dissolved in distilled water and yielded clear and viscous aqueous solutions
6 | aminoethanol-diclofenac-introduced sodium hyaluronate [Reference Example 1] | not dissolved in distilled water but yielded a white suspension
7 | aminoethanol-diclofenac-introduced sodium hyaluronate [Reference Example 2] | homogeneously dissolved in distilled water and yielded clear and viscous aqueous solutions
